Assay results as given in the RNAGym collection of RNA variant scans (doi:10.7554/elife.80360).

B1: CPEB3 Ribozyme (parent)
chain: GGGGGCCACAGCAGAAGCGUUCACGUCGCGGCCCCUGUCAGAUUCUGGUGAAUCUGCGAAUUCUGCUGU

Variants of: B1
Assay: self-cleavage, relative activity (ratio to wild type); higher = more cleavage; co-transcriptional

Row | Variant | self-cleavage
1 | GGGGGCCACAGCAGACGCGAUCACGUCGCGGCCCCUGUCAGAUUCUGGUGAAUCUGCGAAUUCUGCUGU [A16C U20A] | 0.0817
2 | GGGGGCCACAGCAGACGCGCUCACGUCGCGGCCCCUGUCAGAUUCUGGUGAAUCUGCGAAUUCUGCUGU [A16C U20C] | 0.125
3 | GGGGGCCACAGCAGAGGCGUUCACGUCGCGGCCCCUGUCAGGUUCUGGUGAAUCUGCGAAUUCUGCUGU [A16G A42G] | 0.855
4 | GGGGGCCACAGCAGAGGCGUUCACGUCGCGGCCCCUGUCAGUUUCUGGUGAAUCUGCGAAUUCUGCUGU [A16G A42U] | 0.83
5 | GGGGGCCACAGCAGACGCGUUCACGUCGCGGCCCCUGUCAGAUGCUGGUGAAUCUGCGAAUUCUGCUGU [A16C U44G] | 0.307
6 | GGGGGCCACAGCAGACGCGUUCACGUCGCGGCCCCUGUCAGAUACUGGUGAAUCUGCGAAUUCUGCUGU [A16C U44A] | 0.0709
7 | GGGGGCCACAGCAGACGCGUUCACGUCGCGGCCCCUGUCAGAUUCUGGUGAAACUGCGAAUUCUGCUGU [A16C U53A] | 0.16
8 | GGGGGCCACAGCAGAGGCGUUCACGUCGCGGCCCCUGUCAGAUUCUGGUGUAUCUGCGAAUUCUGCUGU [A16G A51U] | 0.914
9 | GGGGGCCACAGCAGACGCGUUCACGUCGCGGCCCCUGUCAGAUUCUGGUGAAUCCGCGAAUUCUGCUGU [A16C U55C] | 0.165
10 | GGGGGCCACAGCAGAGGCGUUCACGUCGCGGCCCCUGUCGGAUUCUGGUGAAUCUGCGAAUUCUGCUGU [A16G A40G] | 0.788
11 | GGGGGCCACAGCAGAGGCGUUUACGUCGCGGCCCCUGUCAGAUUCUGGUGAAUCUGCGAAUUCUGCUGU [A16G C22U] | 0.156
12 | GGGGGCCACAGCAGAGGCGUUAACGUCGCGGCCCCUGUCAGAUUCUGGUGAAUCUGCGAAUUCUGCUGU [A16G C22A] | 0.167
13 | GGGGGCCACAGCAGACGCGUUCACGUCGCGGCCCCUGUCAGAUUCUGGUGAAUCUGCGAAUUCUGCUUU [A16C G68U] | 0.408
14 | GGGGGCCACAGCAGACGCGUUCACGUCGCGGCCCCUGUCAGAUUCUGGUGAAUCUGCGAAUUCAGCUGU [A16C U64A] | 0.0981
15 | GGGGGCCACAGCAGACGCGUUCACGUCGCGGCCCCUGUCAGAUUCUGGUGAAUCUGCGAAUUCCGCUGU [A16C U64C] | 0.145
16 | GGGGGCCACAGCAGAGGCGUUCAUGUCGCGGCCCCUGUCAGAUUCUGGUGAAUCUGCGAAUUCUGCUGU [A16G C24U] | 0.68
17 | GGGGGCCACAGCAGAGGCGUUCAGGUCGCGGCCCCUGUCAGAUUCUGGUGAAUCUGCGAAUUCUGCUGU [A16G C24G] | 0.385
18 | GGGGGCCACAGCAGAGGCGUUCAAGUCGCGGCCCCUGUCAGAUUCUGGUGAAUCUGCGAAUUCUGCUGU [A16G C24A] | 0.481
19 | GGGGGCCACAGCAGAGGGGUUCACGUCGCGGCCCCUGUCAGAUUCUGGUGAAUCUGCGAAUUCUGCUGU [A16G C18G] | 0.129
20 | GGGGGCCACAGCAGACGCGUUCACGUCGCGGCCCCUGUCAGAUUCUGGUGAAUCUGCGAAUUCUCCUGU [A16C G65C] | 0.174

Row | Variant | self-cleavage
21 | GGGGGCCACAGCAGAGGCGUUCACGUGGCGGCCCCUGUCAGAUUCUGGUGAAUCUGCGAAUUCUGCUGU [A16G C27G] | 0.102
22 | GGGGGCCACAGCAGAGGCGUUCACGUAGCGGCCCCUGUCAGAUUCUGGUGAAUCUGCGAAUUCUGCUGU [A16G C27A] | 0.481
23 | GGGGGCCACAGCAGAGGCGUUCACGUCGCGGCCCCUGUCAGAUUCUGGUGAAUCUGCGAGUUCUGCUGU [A16G A60G] | 0.663
24 | GGGGGCCACAGCAGACGCGUUCACGUCGCGGCCCCUGUCAGACUCUGGUGAAUCUGCGAAUUCUGCUGU [A16C U43C] | 0.204
25 | GGGGGCCACAGCAGACGCGUUCACGUCGCGGCCCCUGUCAGAGUCUGGUGAAUCUGCGAAUUCUGCUGU [A16C U43G] | 0.198
26 | GGGGGCCACAGCAGACGCGUUCACGUCGCGGCCCCUGUCAGAUUCCGGUGAAUCUGCGAAUUCUGCUGU [A16C U46C] | 0.293
27 | GGGGGCCACAGCAGACGCGUUCACGUCGCGGCCCCUGUCAGAUUCGGGUGAAUCUGCGAAUUCUGCUGU [A16C U46G] | 0.309
28 | GGGGGCCACAGCAGAGGCGUUCACGUCGCGGCCCCUGUCAGAUUCUGGUGAAUCUGCGUAUUCUGCUGU [A16G A59U] | 0.535
29 | GGGGGCCACAGCAGACGCGUUCACGUCGCGGCCCCUGUCAGAUUCUGGUGAAUCUGCGAAUUCUGCUGC [A16C U69C] | 0.82
30 | GGGGGCCACAGCAGACGCGUUCACGUCGCGGCCCCUGUCAGAUUCUGGUGAAUCUGCGAACUCUGCUGU [A16C U61C] | 0.26
31 | GGGGGCCACAGCAGACGCGUUCACGUCGCGGCCCCUGUCAGAUUCUGGUGAAUCUGCGAAAUCUGCUGU [A16C U61A] | 0.418
32 | GGGGGCCACAGCAGACGCGUUCACGUCGCGGCCCCUGUCAGAUUCUGGUGAAUCUGCGAAUGCUGCUGU [A16C U62G] | 0.148
33 | GGGGGCCACAGCAGACGCGUUCACGUCGCGGCCCCUGUCAGAUUCUGGUGAAUCUGCGAAUACUGCUGU [A16C U62A] | 0.152
34 | GGGGGCCACAGCAGACGCGUUCACGUCGCGGCCCCUGUCAGAUUCUGGUGAAUCUGCGAAUCCUGCUGU [A16C U62C] | 0.222
35 | GGGGGCCACAGCAGACGCGUUCACGUCGCGGCCCCUGUCAGAUUCUGGUGAAUCUACGAAUUCUGCUGU [A16C G56A] | 0.231
36 | GGGGGCCACAGCAGACGCGUUCACGUCGCGGCCCCUGUCAGAUUCUGGUGAAUCUCCGAAUUCUGCUGU [A16C G56C] | 0.131
37 | GGGGGCCACAGCAGAGGCGUUCACGUCGCGGCCCCUGUCAGAUUCUGGUGACUCUGCGAAUUCUGCUGU [A16G A52C] | 0.927
38 | GGGGGCCACAGCAGACGCGUUCACGUCGCGGCCCCUGUCAGAUUCUGGUGAAUCUGCGAAUUCUGCCGU [A16C U67C] | 0.289
39 | GGGGGCCACAGCAGACGCGUCCACGUCGCGGCCCCUGUCAGAUUCUGGUGAAUCUGCGAAUUCUGCUGU [A16C U21C] | 0.174
